Assays:
tau 48-71 (human) = experiment: peptide ELISA, biotinylated peptide on streptavidin plate, IgG titrated (Example 14); details: remark: other sources report otherwise
[1] = molecular target: recombinant tau (human), P10636; experiment: ELISA, recombinant tau coated on the plate, IgG titrated (Example 7); details: remark: other sources report otherwise
Chain of recombinant tau (human), P10636 (P10636 other isoform, or with tags, fused parts or gaps limits assumed): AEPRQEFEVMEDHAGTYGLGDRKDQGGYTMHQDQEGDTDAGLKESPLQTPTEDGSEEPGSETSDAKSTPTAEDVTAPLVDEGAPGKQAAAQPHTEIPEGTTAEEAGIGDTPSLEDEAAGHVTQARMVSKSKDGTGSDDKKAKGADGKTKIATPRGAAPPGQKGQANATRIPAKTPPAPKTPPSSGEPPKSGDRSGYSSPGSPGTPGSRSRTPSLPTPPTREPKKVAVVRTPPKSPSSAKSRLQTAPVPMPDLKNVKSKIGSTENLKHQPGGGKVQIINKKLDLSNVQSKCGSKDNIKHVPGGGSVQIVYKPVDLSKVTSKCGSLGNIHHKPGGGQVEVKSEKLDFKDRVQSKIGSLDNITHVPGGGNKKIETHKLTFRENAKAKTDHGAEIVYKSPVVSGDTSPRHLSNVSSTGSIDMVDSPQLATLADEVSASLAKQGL

Chain of tau 48-71 (human) (peptide, as listed by the source limits assumed, form in doubt): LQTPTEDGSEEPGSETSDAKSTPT

B1: CBTAU-28.1 (antibody, human IgG1, V domains shown)
VH: QVQLQQSGAEVKKPGESLKISCEASGYSFTNYWIGWVRQMPGKGLEWMGIIYPGDSDTRYSPPFQGQVTITADRSITTAYLEWSSLKASDTAMYYCARVGRPSKGGWFDPWGQGTLVTVSS
VL: DIQMTQSPDSLAVSLGERATINCESSQTLLYSSNEKNYLAWYQQKPGQPPKLLISWASTPESGVPDRFSGSGSGTSFTLTISSLQAEDVAVYYCQQYYNSPYTFGQGTRLEIK
modifications: here or on the partner: N-terminal biotin not carried in the letters; no phosphorylation
Question: Which results are given for B1?
Answer: EC50 (read off the curve) (tau 48-71 (human)): 0.06 µg/mL; EC50 (read off the curve) [1]: 0.008 µg/mL
